Measured values published in patent US20150252427A1 (UNIVERSITY OF CONNECTICUT, published 2015).
Like-named read-outs stand apart in the source and are kept apart here.

B1: Tnpo3 Mut peptide (peptide)
peptide: SYMLQALCI
notes: Mut of (sy/LD)MLQALCI; Meth A; also called mutant Tnpo3 peptide; sy-MLQALCI

Assays:
[1] = biological target: T1, H-2 K^d molecules purified by affinity chromatography (human, UniProt P61769 21-119; P01902 22-305); assay: radiolabeled peptide inhibition assay, purified H-2 K^d
T1 construct: MHC class I molecule, 1-10 nM in the assay, with added human beta-2 microglobulin; also called purified MHC molecules
Source text: (§1) Binding assays. […] Under the conditions utilized, where [label]<[MHC] and IC₅₀≧[MHC], the measured IC50 values are reasonable approximations of the KD values.

[2] = biological target: T1, H-2 K^d molecules purified by affinity …; assay: as above; remark: listed apart in the source
Source text: as §1

Binder	IC50 [1]	IC50 [2]
PDKRLKAEPA [Prrc2a WT peptide]	261 nM	–
PYKRLKAEPA (Meth A) [Prrc2a Mut peptide]	1450 nM	–
GDSVLHLAI (WT of G(y/D)SVLHLAI) [Nfkb1 WT peptide]	1620 nM	–
GYSVLHLAI (Mut of G(y/D)SVLHLAI; Meth A) [Nfkb1 Mut peptide]	0.26 nM	–
LDYERIHKKML [Ugdh WT peptide]	12 nM	–
LYYERIHKKML (Meth A) [Ugdh Mut peptide]	600 nM	–
SDRLPSSRKK [M112 WT peptide]	17 nM	–
LYVSKLNGP (Mut of L(y/D)VSKLNGP; Meth A) [Galnt1 Mut peptide]	27100 nM	–
LYDVDAAF (Mut of L(y/D)DVDAAF; Meth A) [Cpsf2 Mut peptide]	1410 nM	–
EYLDLQTQ (Mut of E(y/D)LDLQTQ; Meth A) [Zfp236.1 Mut peptide]	1640 nM	–
AYILAALTKLQ (Meth A) [Trim26.2 Mut peptide]	17600 nM	–
AYAKQFAA (Mut of A(y/D)AKQFAA; Meth A) [Ube4a.2 Mut peptide]	28600 nM	–
NYLLSLVAVVL [Serinc1 WT peptide]	–	20900 nM
NYLLSLVAVML (CMS5) [Serinc1 Mut peptide]	–	2680 nM
CYAKLKEQL (WT of CYAK(v/L)KEQL) [Ssx2ip WT peptide]	–	3.2 nM
CYAKVKEQL (Mut of CYAK(v/L)KEQL; CMS5) [Ssx2ip Mut peptide]	–	26 nM
HYINMSLPI (WT of HYINM(i/S)LPI) [Ufsp2 WT peptide]	–	< 0.1 nM
HYINMILPI (Mut of HYINM(i/S)LPI; Meth A) [Ufsp2 Mut peptide]	–	0.23 nM
AYCETCWEW [Apc WT peptide]	–	60 nM
AYCETCWEL (Meth A) [Apc Mut peptide]	–	23 nM
TYIRPFETKV (Mut of TYIRP(f/L)ETKV; Meth A) [Ccdc85c Mut peptide]	–	6160 nM
HYLSAILRL (WT of HYLS(s/A)ILRL) [Pacs2 WT peptide]	–	1270 nM
HYLSSILRL (Mut of HYLS(s/A)ILRL; Meth A) [Pacs2 Mut peptide]	–	41 nM
YYVPLLKRVPS [Alms1.2 WT peptide]	–	1480 nM
YYVPLLKRVPL (Meth A) [Alms1.2 Mut peptide]	–	421 nM

Binder	IC50 [1]	IC50 [2]
PDLTQYAIIML [Dhx8.1 WT peptide]	1650 nM	–
PYLTQYAIIML (CMS5) [Dhx8.1 Mut peptide]	2190 nM	–
DYVPMEQP (Mut of D(y/D)VPMEQP; CMS5) [Alkbh6.1 Mut peptide]	60900 nM	–
PDLTQYAII (WT of P(y/D)LTQYAII) [Dhx8.3 WT peptide]	1420 nM	–
PYLTQYAII (Mut of P(y/D)LTQYAII; CMS5) [Dhx8.3 Mut peptide]	244 nM	–
PDLTQYAIIM [Dhx8.4 WT peptide]	6260 nM	–
PYLTQYAIIM (CMS5) [Dhx8.4 Mut peptide]	6570 nM	–
DYVPMEQPRPP (CMS5) [Alkbh6.4 Mut peptide]	47100 nM	–
SEDKIKAIP [Rangap1 WT peptide]	5110 nM	–
PALKSEEKTL (CMS5) [Stau1.3 Mut peptide]	69500 nM	–
GFHGCIHEVL (CMS5) [Slit3 Mut peptide]	51600 nM	–
QVFPGLMER [Atxn10.1 WT peptide]	7050 nM	–
ELQGLLEDER [Ccdc136 WT peptide]	4540 nM	–
KLQRQYRSPRR [Mast2 WT peptide]	8510 nM	–
KLQRQYRSPRL (CMS5) [Mast2 Mut peptide]	10100 nM	–
B1	82 nM	–
LDMLQALCI (WT of (sy/LD)MLQALCI) [Tnpo3 WT peptide]	146 nM	–
ADILAALTKL [Trim26.1 WT peptide]	1.1 nM	–
AYILAALTKL (Meth A) [Trim26.1 Mut peptide]	622 nM	–
HYLQGSNA (Mut of H(y/D)LQGSNA; Meth A) [Fiz1 Mut peptide]	2470 nM	–
LYHTRPTAL (Mut of L(y/D)HTRPTAL; Meth A) [Kdm4b Mut peptide]	264 nM	–
IYGVVARNRAL (Mut of I(y/D)GVVARNRAL; Meth A) [Dis312.1 Mut peptide]	143 nM	–
AYAKQFAAI (Mut of A(y/D)AKQFAAI; Meth A) [Ube4a.1 Mut peptide]	12 nM	–
VYLTCRLEKPA (Meth A) [Gapdh Mut peptide]	1150 nM	–
KYMSMLEER (Mut of K(y/D)MSMLEER; Meth A) [Ckap5 Mut peptide (Table 5, 9-mer)]	58 nM	–
